Residue numbers refer to the chain shown, from its start. Numbers in names are those of the source.

Experimental findings from patent US20230158141A1 (YAFEI SHANGHAI BIOLOG MEDICINE SCIENCE AND TECHNOLOGY, published 2023) are described below.

First the molecules themselves.
B1: Ipi-se009 (Ipilimumab light chain Ser54Cys, Kabat L53) (antibody, human IgG1, kappa, V domains shown)
VH: QVQLVESGGGVVQPGRSLRLSCAASGFTFSSYTMHWVRQAPGKGLEWVTFISYDGNNKYYADSVKGRFTISRDNSKNTLYLQMNSLRAEDTAIYYCARTGWLGPFDYWGQGTLVTVSS
VL: not shown
modifications: Cys at 54 (Kabat L53) carries the group named in the row
B2: anti-CTLA-4 antibody light chain A52C (antibody, human IgG1, kappa, V domains shown)
VH: B1 VH
VL: not shown
B3: anti-CTLA-4 antibody light chain Y92C (antibody, human IgG1, kappa, V domains shown)
VH: B1 VH
VL: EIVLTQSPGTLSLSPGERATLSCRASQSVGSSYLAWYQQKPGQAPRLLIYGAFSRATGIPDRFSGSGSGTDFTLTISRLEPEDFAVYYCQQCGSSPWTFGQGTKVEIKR
B4: anti-CTLA-4 antibody light chain Y33C (antibody, human IgG1, kappa, V domains shown)
VH: B1 VH
VL: not shown
B5: anti-CTLA-4 antibody heavy chain D54C (antibody, human IgG1, kappa, V domains shown)
VH: B1 VH with D54C
VL: not shown
B6: anti-CTLA-4 antibody heavy chain Y32C (antibody, human IgG1, kappa, V domains shown)
VH: B1 VH with Y32C
VL: not shown
B7: anti-CTLA-4 antibody heavy chain I51C (antibody, human IgG1, kappa, V domains shown)
VH: B1 VH with I51C
VL: not shown
B8: anti-CTLA-4 antibody heavy chain Y107C (antibody, human IgG1, kappa, V domains shown)
VH: B1 VH with Y107C
VL: not shown
B9: anti-CTLA-4 antibody heavy chain D62C (antibody, human IgG1, kappa, V domains shown)
VH: B1 VH with D62C
VL: not shown
B10: anti-PD-1 antibody 1 light chain G28C-R4-5 (antibody, human IgG4 S228P, kappa, V domains shown)
VH: QVQLVQSGVEVKKPGASVKVSCKASGYTFTNYYMYWVRQAPGQGLEWMGGINPSNGGTNFNEKFKNRVTLTTDSSTTTAYMELKSLQFDDTAVYYCARRDYRFDMGFDYWGQGTTVTVSS
VL: EIVLTQSPATLSLSPGERATLSCRASKCVSTSGYSYLHWYQQKPGQAPRLLIYLASYLESGVPARFSGSGSGTDFTLTISSLEPEDFAVYYCQHSRDLPLTFGGGTKVEIKR
modifications: R4-5 on Cys 28
B11: anti-PD-1 antibody 1 light chain S30C-R4-1 (antibody, human IgG4 S228P, kappa, V domains shown)
VH: B10 VH
VL: B10 VL with C28G, S30C
modifications: R4-1 on Cys 30
B12: anti-PD-1 antibody 1 light chain S60C-R4-1 (antibody, human IgG4 S228P, kappa, V domains shown)
VH: B10 VH
VL: B10 VL with C28G, S60C
modifications: R4-1 on Cys 60
B13: anti-PD-1 antibody 1 light chain S35C-R4-1 (antibody, human IgG4 S228P, kappa, V domains shown)
VH: B10 VH
VL: B10 VL with C28G, S35C
modifications: R4-1 on Cys 35
B14: anti-PD-1 antibody 1 light chain T31C-R4-1 (antibody, human IgG4 S228P, kappa, V domains shown)
VH: B10 VH
VL: B10 VL with C28G, T31C
modifications: R4-1 on Cys 31
B15: anti-PD-1 antibody 2 heavy chain A61C-R4-4 (antibody, human IgG4 S228P, kappa, V domains shown)
VH: QVQLVESGGGVVQPGRSLRLDCKASGITFSNSGMHWVRQAPGKGLEWVAVIWYDGSKRYYCDSVKGRFTISRDNSKNTLFLQMNSLRAEDTAVYYCATNDDYWGQGTLVTVSS
VL: EIVLTQSPATLSLSPGERATLSCRASQSVSSYLAWYQQKPGQAPRLLIYDASNRATGIPARFSGSGSGTDFTLTISSLEPEDFAVYYCQQSSNWPRTFGQGTKVEIKR
modifications: R4-4 on Cys 61
B16: anti-PD-1 antibody 2 heavy chain Y53C-R4-4 (antibody, human IgG4 S228P, kappa, V domains shown)
VH: B15 VH with Y53C, C61A
VL: B15 VL
modifications: R4-4 on Cys 53
B17: anti-PD-1 antibody 2 heavy chain S32C-R4-1 (antibody, human IgG4 S228P, kappa, V domains shown)
VH: B15 VH with S32C, C61A
VL: B15 VL
modifications: R4-1 on Cys 32
B18: anti-PD-1 antibody 2 heavy chain K65C-R4-7 (antibody, human IgG4 S228P, kappa, V domains shown)
VH: B15 VH with C61A, K65C
VL: B15 VL
modifications: R4-7 on Cys 65
B19: anti-PD-1 antibody 2 heavy chain S30C-R4-1 (antibody, human IgG4 S228P, kappa, V domains shown)
VH: B15 VH with S30C, C61A
VL: B15 VL
modifications: R4-1 on Cys 30
B20: anti-PD-1 antibody 2 heavy chain K57C-R4-7 (antibody, human IgG4 S228P, kappa, V domains shown)
VH: B15 VH with K57C, C61A
VL: B15 VL
modifications: R4-7 on Cys 57
B21: anti-CTLA-4 antibody light chain L34C (antibody, human IgG1, kappa, V domains shown)
VH: B1 VH
VL: not shown
B22: anti-CTLA-4 antibody light chain T98C (antibody, human IgG1, kappa, V domains shown)
VH: B1 VH
VL: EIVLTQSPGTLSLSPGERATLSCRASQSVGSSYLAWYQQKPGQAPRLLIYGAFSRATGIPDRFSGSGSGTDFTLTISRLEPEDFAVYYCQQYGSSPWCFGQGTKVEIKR
B23: anti-CTLA-4 antibody light chain A35C (antibody, human IgG1, kappa, V domains shown)
VH: B1 VH
VL: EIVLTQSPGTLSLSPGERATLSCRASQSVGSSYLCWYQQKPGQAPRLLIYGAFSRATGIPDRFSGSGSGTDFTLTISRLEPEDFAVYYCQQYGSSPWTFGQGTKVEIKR
B24: anti-CTLA-4 antibody light chain A56C (antibody, human IgG1, kappa, V domains shown)
VH: B1 VH
VL: not shown
B25: anti-CD28 antibody light chain G99C-R4-1 (antibody, human IgG4, kappa, V domains shown)
VH: QVQLVQSGAEVKKPGASVKVSCKASGYTFTSYYIHWVRQAPGQGLEWIGCIYPGNVNTNYNEKFKDRATLTVDTSISTAYMELSRLRSDDTAVYFCTRSHYGLDWNFDVWGQGTTVTVSS
VL: not shown
modifications: R4-1 on Cys 99
B26: anti-CD28 antibody light chain T93C-R4-1 (antibody, human IgG4, kappa, V domains shown)
VH: B25 VH
VL: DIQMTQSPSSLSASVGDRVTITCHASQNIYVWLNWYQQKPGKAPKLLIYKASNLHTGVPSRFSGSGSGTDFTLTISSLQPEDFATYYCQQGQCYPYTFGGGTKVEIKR
modifications: R4-1 on Cys 93
B27: anti-CTLA-4 antibody heavy chain K65C-R4-7 (antibody, human IgG1, kappa, V domains shown)
VH: B1 VH with K65C
VL: not shown
modifications: R4-7 on Cys 65
B28: anti-CTLA-4 antibody heavy chain Y59C-R4-4 (antibody, human IgG1, kappa, V domains shown)
VH: B1 VH with Y59C
VL: not shown
modifications: R4-4 on Cys 59
B29: anti-CTLA-4 antibody heavy chain S30C-R4-1 (antibody, human IgG1, kappa, V domains shown)
VH: B1 VH with S30C
VL: not shown
modifications: R4-1 on Cys 30
B30: anti-CTLA-4 antibody heavy chain D106C-R4-3 (antibody, human IgG1, kappa, V domains shown)
VH: B1 VH with D106C
VL: not shown
modifications: R4-3 on Cys 106
B31: anti-CTLA-4 antibody heavy chain S31C-R4-1 (antibody, human IgG1, kappa, V domains shown)
VH: B1 VH with S31C
VL: not shown
modifications: R4-1 on Cys 31
B32: anti-CTLA-4 antibody heavy chain K58C-R4-7 (antibody, human IgG1, kappa, V domains shown)
VH: B1 VH with K58C
VL: not shown
modifications: R4-7 on Cys 58
B33: anti-PD-1 antibody 1 heavy chain K63C-R4-7 (antibody, human IgG4 S228P, kappa, V domains shown)
VH: B10 VH with K63C
VL: B10 VL with C28G
modifications: R4-7 on Cys 63
B34: anti-PD-1 antibody 1 heavy chain T30C-R4-1 (antibody, human IgG4 S228P, kappa, V domains shown)
VH: B10 VH with T30C
VL: B10 VL with C28G
modifications: R4-1 on Cys 30
B35: anti-PD-1 antibody 1 heavy chain T58C-R4-1 (antibody, human IgG4 S228P, kappa, V domains shown)
VH: B10 VH with T58C
VL: B10 VL with C28G
modifications: R4-1 on Cys 58
B36: anti-PD-1 antibody 1 heavy chain S54C-R4-1 (antibody, human IgG4 S228P, kappa, V domains shown)
VH: B10 VH with S54C
VL: B10 VL with C28G
modifications: R4-1 on Cys 54

T4 sequence (Q15116 25-167 limits assumed): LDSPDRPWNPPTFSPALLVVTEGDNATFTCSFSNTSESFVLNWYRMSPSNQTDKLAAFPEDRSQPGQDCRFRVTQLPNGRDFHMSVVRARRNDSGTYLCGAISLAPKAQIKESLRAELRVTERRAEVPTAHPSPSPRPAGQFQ

The target in one assay is T1, CTLA-4 (UniProt P16410 36-162, limits assumed).
T1 construct: also called CTLA-4 protein
The assay can be described thus: ELISA; R4-1 on the Cys. For orientation: An ELISA detects its analyte on a solid surface through an enzyme-linked reagent.
In the case of B1, the Binding activity was determined as 98%.

In the next assay the target is T2, CTLA-4 (UniProt P16410 36-162, limits assumed). As to the kind of experiment: ELISA, OD mutant/OD WT; ↓=less than 70%.
For B2, the “binding activity vs wild type” value was less than 70%.

Turning to B3, the “binding activity vs wild type” value is less than 70%.

Consider B4, for which the “binding activity vs wild type” value was less than 70%.

A further assay addresses T2, CTLA-4. The assay can be described thus: ELISA, OD mutant/OD WT; B=70-90%.
B5: the “binding activity (OD after mutation/OD wild type)” value was 70 to 90%.

For the molecule B6, the “binding activity (OD after mutation/OD wild type)” value lay in the range of 70 to 90%.

B7: the “binding activity (OD after mutation/OD wild type)” value is 70 to 90%.

B8: the “binding activity (OD after mutation/OD wild type)” value was 70 to 90%.

On to B9, for which the “binding activity (OD after mutation/OD wild type)” value lay in the range of 70 to 90%.

The target of the next assay is T3, human CTLA-4 Fc fusion protein (R&D systems) (human, UniProt P16410 37-162).
T3 construct: bought
T3 sequence (P16410 37-162 limits assumed): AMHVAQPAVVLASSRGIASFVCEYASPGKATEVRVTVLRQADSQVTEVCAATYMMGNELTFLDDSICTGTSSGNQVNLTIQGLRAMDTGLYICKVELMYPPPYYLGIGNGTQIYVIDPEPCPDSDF
The assay can be described thus: ELISA, fold change of EC50; S47 on the Cys.
Regarding B1, the “Blocking efficiency after conjugation with S47” value was found to be 22 fold.

In the next assay the target is T3, human CTLA-4 Fc fusion protein (R&D …). The assay can be described thus: receptor blocking ELISA against biotinylated B7-1 or B7-2; TMEAbody (S47 conjugate).
With B1, the “Blocking efficiency (RBA), fold change of IC50” value came out at 18 fold.

The next assay deals with T1, CTLA-4. The assay can be described thus: ELISA; S47 on the Cys.
On to B1, for which the “Activity after S47 (40 kD) blocking” value worked out at 5%.

The next assay concerns the target T4, PD-1 (UniProt Q15116 25-167, limits assumed). The assay can be described thus: ELISA, conjugate vs WT antibody.
B10: the “binding activity (% of WT)” value was 108%.

Regarding B11, the “binding activity (% of WT)” value is 86.9%.

For the molecule B12, the “binding activity (% of WT)” value worked out at 89.4%.

B13: the “binding activity (% of WT)” value worked out at 88.3%.

As to B14, the “binding activity (% of WT)” value is 84.4%.

The next assay addresses T4, PD-1. As to the kind of experiment: ELISA, conjugate vs WT antibody. This is another data set of the same source.
For B15, the “binding activity (% of WT)” value came to 83.9%.

Regarding B16, the “binding activity (% of WT)” value amounted to 91.6%.

B17: the “binding activity (% of WT)” value amounted to 86.8%.

In the case of B18, the “binding activity (% of WT)” value turned out to be 92.1%.

On to B19, for which the “binding activity (% of WT)” value turned out to be 107%.

Consider B20, for which the “binding activity (% of WT)” value came to 89.7%.

In a further assay the target is T2, CTLA-4. The assay can be described thus: ELISA, OD mutant/OD WT; B=70-90%. This is another data set of the same source.
With B21, the “binding activity (OD after mutation/OD wild type)” value was 70 to 90%.

For B22, the “binding activity (OD after mutation/OD wild type)” value lay in the range of 70 to 90%.

For the molecule B23, the “binding activity (OD after mutation/OD wild type)” value lay in the range of 70 to 90%.

In the case of B24, the “binding activity (OD after mutation/OD wild type)” value is 70 to 90%.

The next assay concerns the target CD28 (UniProt P10747 19-152, limits assumed). The assay can be described thus: ELISA, conjugate vs WT antibody.
As to B25, the “binding activity (% of WT)” value came out at 96.6%.

Take B26: the “binding activity (% of WT)” value stood at 87%.

The target of a further assay is T2, CTLA-4. The assay can be described thus: ELISA, conjugate vs WT antibody.
B27: the “binding activity (% of WT)” value stood at 96.2%.

With B28, the “binding activity (% of WT)” value is 89.1%.

Regarding B29, the “binding activity (% of WT)” value was 93.4%.

In the case of B30, the “binding activity (% of WT)” value turned out to be 87.6%.

With B31, the “binding activity (% of WT)” value turned out to be 110%.

For B32, the “binding activity (% of WT)” value is 87.6%.

For another assay, the target named is T1, CTLA-4. As to the kind of experiment: ELISA; R4-1 on the Cys. This is another data set of the same source.
On to B1, for which the Binding activity worked out at 98%.

In a further assay the target is T4, PD-1. As to the kind of experiment: ELISA, conjugate vs WT antibody. This is another data set of the same source.
In the case of B33, the “binding activity (% of WT)” value is 95.2%.

Take B34: the “binding activity (% of WT)” value came out at 91.2%.

Regarding B35, the “binding activity (% of WT)” value is 93.9%.

With B36, the “binding activity (% of WT)” value is 104%.
